Source: the Human Domainome abundance scans (Beltran et al. 2025)
± gives the uncertainty stated by the source.

Assay: abundance fitness (aPCA) (normalised: wild type 0, dead -1); higher = more abundant; growth selection in yeast, the domain comes from the species named
Settings: Homo sapiens

Substance	abundance fitness
E3 ubiquitin-protein ligase NEDD4-like L190M, Q96PU5	-0.407 ± 0.097
E3 ubiquitin-protein ligase NEDD4-like R217M, Q96PU5	-0.239 ± 0.07
E3 ubiquitin-protein ligase NEDD4-like D204A, Q96PU5	-0.392 ± 0.068
E3 ubiquitin-protein ligase NEDD4-like E201G, Q96PU5	-0.282 ± 0.05
E3 ubiquitin-protein ligase NEDD4-like P197C, Q96PU5	-0.249 ± 0.095
E3 ubiquitin-protein ligase NEDD4-like L190W, Q96PU5	-0.503 ± 0.068
E3 ubiquitin-protein ligase NEDD4-like L190R, Q96PU5	-0.024 ± 0.057
E3 ubiquitin-protein ligase NEDD4-like P192Q, Q96PU5	0.02 ± 0.076
E3 ubiquitin-protein ligase NEDD4-like R217C, Q96PU5	-0.105 ± 0.081
E3 ubiquitin-protein ligase NEDD4-like P224D, Q96PU5	-0.772 ± 0.14
E3 ubiquitin-protein ligase NEDD4-like P196W, Q96PU5	-0.416 ± 0.057
E3 ubiquitin-protein ligase NEDD4-like N213Q, Q96PU5	-0.295 ± 0.089
E3 ubiquitin-protein ligase NEDD4-like T209E, Q96PU5	-0.31 ± 0.078
E3 ubiquitin-protein ligase NEDD4-like S225T, Q96PU5	-0.066 ± 0.079
E3 ubiquitin-protein ligase NEDD4-like N205L, Q96PU5	-0.196 ± 0.07
E3 ubiquitin-protein ligase NEDD4-like N205P, Q96PU5	-0.012 ± 0.093
E3 ubiquitin-protein ligase NEDD4-like T219Y, Q96PU5	-0.451 ± 0.089
E3 ubiquitin-protein ligase NEDD4-like E201C, Q96PU5	-0.084 ± 0.09
E3 ubiquitin-protein ligase NEDD4-like W199C, Q96PU5	-0.25 ± 0.098
E3 ubiquitin-protein ligase NEDD4-like E189M, Q96PU5	-0.477 ± 0.081
E3 ubiquitin-protein ligase NEDD4-like Q185V, Q96PU5	-0.332 ± 0.075
E3 ubiquitin-protein ligase NEDD4-like S184W, Q96PU5	-1.33 ± 0.15
E3 ubiquitin-protein ligase NEDD4-like Y211Q, Q96PU5	-0.704 ± 0.085
E3 ubiquitin-protein ligase NEDD4-like T209P, Q96PU5	-0.002 ± 0.059

Substance	abundance fitness
E3 ubiquitin-protein ligase NEDD4-like K202H, Q96PU5	-0.173 ± 0.078
E3 ubiquitin-protein ligase NEDD4-like Q187M, Q96PU5	-0.069 ± 0.092
E3 ubiquitin-protein ligase NEDD4-like L206A, Q96PU5	0.124 ± 0.059
E3 ubiquitin-protein ligase NEDD4-like D204K, Q96PU5	-0.894 ± 0.13
E3 ubiquitin-protein ligase NEDD4-like Q185H, Q96PU5	-0.034 ± 0.081
E3 ubiquitin-protein ligase NEDD4-like N215Y, Q96PU5	-0.173 ± 0.1
E3 ubiquitin-protein ligase NEDD4-like E189C, Q96PU5	-0.176 ± 0.062
E3 ubiquitin-protein ligase NEDD4-like T209G, Q96PU5	-0.305 ± 0.062
E3 ubiquitin-protein ligase NEDD4-like R208F, Q96PU5	-0.289 ± 0.06
E3 ubiquitin-protein ligase NEDD4-like K202C, Q96PU5	-0.253 ± 0.097
E3 ubiquitin-protein ligase NEDD4-like R208G, Q96PU5	-0.191 ± 0.06
E3 ubiquitin-protein ligase NEDD4-like R208W, Q96PU5	-0.408 ± 0.083
E3 ubiquitin-protein ligase NEDD4-like D204C, Q96PU5	-0.151 ± 0.099
E3 ubiquitin-protein ligase NEDD4-like S230H, Q96PU5	-0.002 ± 0.09
E3 ubiquitin-protein ligase NEDD4-like P193S, Q96PU5	-0.042 ± 0.063
E3 ubiquitin-protein ligase NEDD4-like N205D, Q96PU5	-0.085 ± 0.07
E3 ubiquitin-protein ligase NEDD4-like Q185S, Q96PU5	-1.18 ± 0.15
E3 ubiquitin-protein ligase NEDD4-like R223E, Q96PU5	-0.378 ± 0.087
E3 ubiquitin-protein ligase NEDD4-like D204N, Q96PU5	-0.451 ± 0.14
E3 ubiquitin-protein ligase NEDD4-like T219M, Q96PU5	-0.285 ± 0.091
E3 ubiquitin-protein ligase NEDD4-like S231R, Q96PU5	0.002 ± 0.074
E3 ubiquitin-protein ligase NEDD4-like P193R, Q96PU5	0.025 ± 0.055
E3 ubiquitin-protein ligase NEDD4-like P192D, Q96PU5	-0.173 ± 0.063
E3 ubiquitin-protein ligase NEDD4-like P193G, Q96PU5	-0.086 ± 0.058

Substance	abundance fitness
E3 ubiquitin-protein ligase NEDD4-like P194F, Q96PU5	-0.443 ± 0.084
E3 ubiquitin-protein ligase NEDD4-like Q220A, Q96PU5	-0.096 ± 0.057
E3 ubiquitin-protein ligase NEDD4-like S231M, Q96PU5	-0.222 ± 0.08
E3 ubiquitin-protein ligase NEDD4-like S225R, Q96PU5	-0.024 ± 0.064
E3 ubiquitin-protein ligase NEDD4-like V212Y, Q96PU5	-0.003 ± 0.15
E3 ubiquitin-protein ligase NEDD4-like Y210G, Q96PU5	-0.621 ± 0.057
E3 ubiquitin-protein ligase NEDD4-like S230F, Q96PU5	-0.139 ± 0.11
E3 ubiquitin-protein ligase NEDD4-like H214P, Q96PU5	-0.063 ± 0.077
E3 ubiquitin-protein ligase NEDD4-like G207E, Q96PU5	-0.312 ± 0.066
E3 ubiquitin-protein ligase NEDD4-like Q220E, Q96PU5	-0.555 ± 0.084
E3 ubiquitin-protein ligase NEDD4-like Q187L, Q96PU5	-0.287 ± 0.071
E3 ubiquitin-protein ligase NEDD4-like P224E, Q96PU5	-0.612 ± 0.086
E3 ubiquitin-protein ligase NEDD4-like G207T, Q96PU5	-0.419 ± 0.055
E3 ubiquitin-protein ligase NEDD4-like L190D, Q96PU5	0.066 ± 0.1
E3 ubiquitin-protein ligase NEDD4-like N216V, Q96PU5	-0.151 ± 0.056
E3 ubiquitin-protein ligase NEDD4-like N205F, Q96PU5	-0.544 ± 0.11
E3 ubiquitin-protein ligase NEDD4-like Q187R, Q96PU5	-0.298 ± 0.066
E3 ubiquitin-protein ligase NEDD4-like V203F, Q96PU5	-0.055 ± 0.069
E3 ubiquitin-protein ligase NEDD4-like V203P, Q96PU5	-0.368 ± 0.07
E3 ubiquitin-protein ligase NEDD4-like P191A, Q96PU5	-0.044 ± 0.07
E3 ubiquitin-protein ligase NEDD4-like H186P, Q96PU5	-0.292 ± 0.081
E3 ubiquitin-protein ligase NEDD4-like P192K, Q96PU5	-0.086 ± 0.095
E3 ubiquitin-protein ligase NEDD4-like W199A, Q96PU5	-0.535 ± 0.086
E3 ubiquitin-protein ligase NEDD4-like W221I, Q96PU5	-0.192 ± 0.12

Substance	abundance fitness
E3 ubiquitin-protein ligase NEDD4-like P194N, Q96PU5	-0.304 ± 0.11
E3 ubiquitin-protein ligase NEDD4-like T219R, Q96PU5	-0.3 ± 0.057
E3 ubiquitin-protein ligase NEDD4-like N216Q, Q96PU5	-0.343 ± 0.1
E3 ubiquitin-protein ligase NEDD4-like Y210M, Q96PU5	-0.19 ± 0.084
E3 ubiquitin-protein ligase NEDD4-like E200C, Q96PU5	-0.092 ± 0.08
E3 ubiquitin-protein ligase NEDD4-like Q220N, Q96PU5	-0.354 ± 0.071
E3 ubiquitin-protein ligase NEDD4-like E201H, Q96PU5	-0.223 ± 0.13
E3 ubiquitin-protein ligase NEDD4-like E232W, Q96PU5	-0.98 ± 0.33
E3 ubiquitin-protein ligase NEDD4-like H186C, Q96PU5	-0.282 ± 0.093
E3 ubiquitin-protein ligase NEDD4-like T209C, Q96PU5	-0.146 ± 0.067
E3 ubiquitin-protein ligase NEDD4-like P196R, Q96PU5	-0.106 ± 0.063
E3 ubiquitin-protein ligase NEDD4-like P197E, Q96PU5	0.031 ± 0.074
E3 ubiquitin-protein ligase NEDD4-like M227A, Q96PU5	-0.077 ± 0.064
E3 ubiquitin-protein ligase NEDD4-like P193H, Q96PU5	-0.058 ± 0.11
E3 ubiquitin-protein ligase NEDD4-like R208K, Q96PU5	-0.028 ± 0.079
E3 ubiquitin-protein ligase NEDD4-like L226Y, Q96PU5	-0.043 ± 0.091
E3 ubiquitin-protein ligase NEDD4-like Y211R, Q96PU5	-0.728 ± 0.052
E3 ubiquitin-protein ligase NEDD4-like E200H, Q96PU5	-0.721 ± 0.18
E3 ubiquitin-protein ligase NEDD4-like N213T, Q96PU5	-0.428 ± 0.1
E3 ubiquitin-protein ligase NEDD4-like G207Y, Q96PU5	-0.397 ± 0.06
E3 ubiquitin-protein ligase NEDD4-like H222Y, Q96PU5	-0.171 ± 0.11
E3 ubiquitin-protein ligase NEDD4-like E189R, Q96PU5	-0.23 ± 0.055
E3 ubiquitin-protein ligase NEDD4-like T218I, Q96PU5	-0.118 ± 0.096
